Marks after values point to notes of the source that are not given here.
How the values were obtained:
lung cancer cell A549 = experiment: MTT assay, proliferation of lung cancer cell A549; type: cell-based
Procedure: The MTT assay was used to detect the inhibitory effect of the integrin blocker fusion protein obtained in Example 1 on the proliferation of various tumor cells, including melanoma cell B16F10, gastric cancer cell MGC-803, lung cancer cell A549, liver cancer cell Hep-G2, breast cancer cell MDA-MB-231, colon cancer cell HCT-116, human glioma U87, and cervical cancer cell Hela.
The tumor cells were cultured in a 5% CO2 incubator at 37° C. to a density of 90% or more, and collected by trypsinization. The cells were resuspended in the culture liquid and counted under a microscope. The cell concentration was adjusted to 3.0×10^4 cells/mL. The cell suspension was inoculated into a 96-well plate at 100 μL per well and cultured overnight in a 5% CO2 incubator at 37° C. […] After the cells were fully adhered, each dilution was added to a 96-well plate at 100 μL per well, respectively. […] 20 μL of 5 mg/mL MTT was added to each well of a 96-well plate, and incubation was continued for 4 hours. The medium was aspirated and 100 μL of DMSO per well were added to dissolve. The absorbance was measured at 570 nm with a microplate reader with a reference wavelength of 630 nm, and the proliferation inhibition (PI) was calculated. The formula is as follows: […]
where Ntest is the OD value of the test group and Ncontrol is the OD value of the blank control group.
The test was repeated 5 times independently. The results obtained from the test were calculated as mean±SD, and statistical t-test was performed. P<0.05 was considered as a significant difference, and P<0.01 was considered as an extremely significant difference.

[1] = tested on: human umbilical vein endothelial cells (HUVEC); experiment: Three-dimensional transwell assay, migration of HUVEC; type: cell-based
Procedure: Human umbilical vein endothelial cells (HUVECs) were cultured with endothelial cell culture fluid containing 5% fetal bovine serum and 1×ECGS in a 5% CO2 incubator at 37° C., to a confluence of 90% or more, and then inhibitory effects of fusion protein I, protein II, protein III, protein IV, and protein V on migration of endothelial cells were detected by transwell assay, in which only endothelial cells HUVEC of passage 2 to 8 were used, and the specific operation was as follows.
(1) 10 mg/mL Matrigel was diluted with a DMEM medium at a ratio of 1:4, coated on a transwell chamber membrane, and air-dried at room temperature.
(2) HUVEC cells cultured to logarithmic phase were digested with 0.2% EDTA, collected, washed twice with PBS, followed by resuspended in an endothelial cell culture liquid containing 0.1% BSA, counted under a microscope, and the cell concentration was adjusted to 1×10^5 cells/mL;
(3) Test solutions for each group were formulated and diluted to 100 μL with a cell culture liquid containing 0.1% BSA;
Groups were divided as follows:
Blank control group: a cell culture liquid containing no drug;
Endostar group: 5 mg/mL Endostar solution diluted to a predetermined concentration with a cell culture liquid containing no drug; […]
(4) The cells were inoculated into a transwell chamber at 100 μL per well, and test solutions for each group were added to the chamber. To a 24-well plate, 0.6 mL of endothelial cell culture liquid containing 5% fetal bovine serum and 1×ECGS was added to stimulate cell migration, and incubated at 5% CO2 for 24 h at 37° C.
(5) The culture liquid in the well was discarded. The cells were fixed with 90% alcohol at room temperature for 30 min, stained with 0.1% crystal violet for 10 min at room temperature, and rinsed with water. Un-migrated cells in the upper layer were gently wiped off by a cotton swab. The observation was carried out under microscope and four fields of view were selected for taking photos and counting. The migration inhibition (MI) was calculated according to the formula: […]
where Ntest is the migration cell number in the test group, and Ncontrol is the migration cell number in the blank control group.
The test was repeated 3 times independently. The results obtained from the test were calculated as mean±SD, and statistical t-test was performed. P<0.05 was considered as a significant difference, and P<0.01 was considered as an extremely significant difference.

tampon granuloma in rat = type: in vivo
Procedure: 40 parts of degreasing cotton, 30 mg for each part, were accurately weighed with an analytical balance and kneaded into balls having substantially the same shape and size, which were autoclaved at […] for 30 min and dried at 50° C. for further use.
40 male SD rats were randomly divided into 4 groups with 10 rats for each group. […] Rats were anesthetized with sodium pentobarbital (40 mg/kg) via intraperitoneal injection before administration. The abdominal coat was cut off, and the skin of middle of the lower abdomen was cut under sterile conditions. The incision was about 1 cm long and the subcutaneous tissue was expanded with a vascular clamp. A sterile dry tampon was subcutaneously implanted into one side of the groin, the incision was sutured, and an appropriate amount of amoxicillin was spread at the incision to prevent infection. After the surgery was finished, the groups were administered once by injection from the day of surgery (EDSM needed to be administered twice a day). The rats were sacrificed by cervical dislocation at the 24th hour after administration, the inguinal skin was cut, the tampon was taken out together with the surrounding granulation tissue and the surrounding tissue was removed. After drying for additional 48 h in an oven at 60° C., the weight was accurately weighed. The granuloma weight was calculated: granuloma weight (mg/100 g body weight)=net weight of granulation (mg)/rat body weight (100 g).

B1: Protein II: IgG2-Fc linked to antiangiogenesis polypeptide EDSM-Y via a flexible linker; SEQ ID NO: 17 (protein)
chain: ERKCCVECPPCPAPPVAGPSVFLFPPKPKDTLMISRTPEVTCVVVDVSHEDPEVQFNWYVDGVEVHNAKTKPREEQFNSTFRVVSVLTVVHQDWLNGKEYKCKVSNKGLPAPIEKTISKTKGQPREPQVYTLPPSREEMTKNQVSLTCLVKGFYPSDISVEWESNGQPENNYKTTPPMLDSDGSFFLYSKLTVDKSRWQQGNVFSCSVMHEALHNHYTQKSLSLSPGKGGGGSGGGGSGGGGSFQPVLHLVALNSPLSGGMRGIRGADFQCFQQARAVGLAGTFRAGGGGRGD
For B1, the “A570 nm/A630 nm” value (lung cancer cell A549; dose 1 μg/mL) was 0.8885 ± 0.0374, the “PI (%)” value (lung cancer cell A549; dose 1 μg/mL) was 8.28% and the “A570 nm/A630 nm” value (lung cancer cell A549; dose 2 μg/mL) was 0.7933 ± 0.0253. For the same molecule, the “PI (%)” value (lung cancer cell A549; dose 2 μg/mL) was 18.11%, the “A570 nm/A630 nm” value (lung cancer cell A549; dose 4 μg/mL) was 0.7005 ± 0.0396 and the “PI (%)” value (lung cancer cell A549; dose 4 μg/mL) was 27.69%. The “A570 nm/A630 nm” value (lung cancer cell A549; dose 8 μg/mL) was 0.6325 ± 0.0215, the “PI (%)” value (lung cancer cell A549; dose 8 μg/mL) was 34.71% and the “A570 nm/A630 nm” value (lung cancer cell A549; dose 16 μg/mL) was 0.5923 ± 0.0192. For the same molecule, the “PI (%)” value (lung cancer cell A549; dose 16 μg/mL) was 38.86%, the “PI (%)” value (lung cancer cell A549; dose 16 μg/mL, listed as protein II) was “about 40%” and the “A570 nm/A630 nm” value (lung cancer cell A549; dose 32 μg/mL) was 0.5006 ± 0.0347. For the same molecule, the “PI (%)” value (lung cancer cell A549; dose 32 μg/mL) was 48.32%, the “A570 nm/A630 nm” value (lung cancer cell A549; dose 64 μg/mL) was 0.4106 ± 0.0286 and the “PI (%)” value (lung cancer cell A549; dose 64 μg/mL) was 57.61%. For the same molecule, the “A570 nm/A630 nm” value (lung cancer cell A549; dose 128 μg/mL) was 0.2008 ± 0.0147, the “PI (%)” value (lung cancer cell A549; dose 128 μg/mL) was 79.27% and the “A570 nm/A630 nm” value (lung cancer cell A549; dose 256 μg/mL) was 0.1165 ± 0.0159. For the same molecule, the “PI (%)” value (lung cancer cell A549; dose 256 μg/mL) was 87.97%, the “MI (%)” value ([1]; dose 0.25 μg/mL) was 16.12% and the Migration cell number ([1]; dose 0.25 μg/mL) was 2108.0 ± 75.27. The “MI (%)” value ([1]; dose 0.5 μg/mL) was 52.11%, the Migration cell number ([1]; dose 0.5 μg/mL) was 1203.5 ± 220.14**^ and the “MI (%)” value ([1]; dose 1 μg/mL) was 73.06%. The Migration cell number ([1]; dose 1 μg/mL) was 677.0 ± 24.72**^, the “MI (%)” value ([1]; dose 2 μg/mL) was 77.34% and the Migration cell number ([1]; dose 2 μg/mL) was 569.5 ± 270.29. For the same molecule, the “MI (%)” value ([1]; dose 4 μg/mL) was 65.86%, the Migration cell number ([1]; dose 4 μg/mL) was 858.0 ± 145.87 and the “MI (%)” value ([1]; dose 8 μg/mL) was 29.88%. For the same molecule, the Migration cell number ([1]; dose 8 μg/mL) was 1762.0 ± 183.97, the “inhibition of tampon granuloma in rat” value (tampon granuloma in rat; effective dose of 64 mg/kg, compared with the blank model group) was “could significantly inhibit tampon granuloma in rat” and the “GranuLoma (mg)/Weight (100 g)” value (tampon granuloma in rat; rat, 64 mg/kg, injection) was 0.23 ± 0.05 mg/100 g. The “PI (%)” value (tampon granuloma in rat; rat, 64 mg/kg, injection) was 55.77% and the “Weight gain” value (tampon granuloma in rat; rat, in vivo, 64 mg/kg) was 32.16 ± 10.13 g.
